Experimental data reported in patent US20240109965A1 (Ablynx, published 2024).

How the values were obtained:
[1] = target: T1, human T cell receptor (TCRαβ) on primary human T cells (human); experiment: cell-based or functional assay
[2] = target: T1, human T cell receptor (TCRαβ) on …; experiment: cell-based or functional assay; remark: listed apart in the source
[3] = target: T2, cynomolgus T cell receptor (TCRαβ) on primary cynomolgus T cells (cynomolgus); experiment: cell-based or functional assay
T2 V domain 1: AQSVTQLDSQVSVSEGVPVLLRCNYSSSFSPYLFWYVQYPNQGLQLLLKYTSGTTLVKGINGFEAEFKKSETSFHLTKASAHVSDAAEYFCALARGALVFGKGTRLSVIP
T2 V domain 2: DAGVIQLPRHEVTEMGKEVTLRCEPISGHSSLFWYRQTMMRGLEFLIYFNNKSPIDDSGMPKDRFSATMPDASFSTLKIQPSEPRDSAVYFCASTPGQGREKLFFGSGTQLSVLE

[4] = target: T3, cynomolgus TCRαβ-zipper protein (cynomolgus); experiment: SPR Biacore 8K+, multi-cycle kinetics, TCR-zipper immobilized
T3 construct: also called cyTCR(AEA41865)-zipper; CynoTCRαβ-zipper
Method: Binding of purified TCE-CD123-ALB and CD123-TCE-ALB ISVD constructs to human TCRαβ-zipper protein (huTCR(2XN9)-zipper, in-house produced) and cynomolgus TCRαβ-zipper protein (cyTCR(AEA41865)-zipper, in-house produced) was probed by Surface Plasmon Resonance (SPR) (Cytiva, Biacore 8K+). Both targets were immobilized on a CM5 sensor chip using standard amine coupling chemistry. […] Each concentration of the ISVDs was injected for 180s and dissociation was assessed during 600s.
Data was double referenced by subtracting a reference flow cell (FC) and a blank buffer injection. Affinity constants (ka, kd and KD) were calculated applying the Langmuir 1:1 interaction model using the Biacore Insight Evaluation Software (Cytiva, Version 3.0.12.15655).
T3 TCR alpha: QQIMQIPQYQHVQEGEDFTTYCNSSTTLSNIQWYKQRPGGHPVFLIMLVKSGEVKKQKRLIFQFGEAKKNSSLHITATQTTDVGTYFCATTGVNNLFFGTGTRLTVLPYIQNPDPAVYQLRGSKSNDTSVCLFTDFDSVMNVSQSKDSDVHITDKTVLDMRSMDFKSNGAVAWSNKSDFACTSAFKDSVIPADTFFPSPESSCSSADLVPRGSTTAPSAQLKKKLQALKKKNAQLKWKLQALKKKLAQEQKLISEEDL
T3 TCR beta: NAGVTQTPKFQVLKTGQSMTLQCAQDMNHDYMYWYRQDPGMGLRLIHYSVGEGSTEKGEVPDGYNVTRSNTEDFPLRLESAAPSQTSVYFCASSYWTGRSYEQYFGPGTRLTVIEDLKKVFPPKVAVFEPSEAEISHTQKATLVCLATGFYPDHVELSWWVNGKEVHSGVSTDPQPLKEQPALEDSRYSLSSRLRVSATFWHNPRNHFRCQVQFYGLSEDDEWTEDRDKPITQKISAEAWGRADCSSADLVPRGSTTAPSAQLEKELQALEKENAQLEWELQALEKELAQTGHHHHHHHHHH

T1 sequence (P0DTU3 134-275, chain 1 of 2): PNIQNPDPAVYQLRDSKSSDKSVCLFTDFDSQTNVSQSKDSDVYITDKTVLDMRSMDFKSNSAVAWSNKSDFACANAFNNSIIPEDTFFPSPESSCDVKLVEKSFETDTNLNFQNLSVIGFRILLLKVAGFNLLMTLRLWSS
T1 sequence (P01850 other isoform, or with tags, fused parts or gaps, chain 2 of 2, further chain): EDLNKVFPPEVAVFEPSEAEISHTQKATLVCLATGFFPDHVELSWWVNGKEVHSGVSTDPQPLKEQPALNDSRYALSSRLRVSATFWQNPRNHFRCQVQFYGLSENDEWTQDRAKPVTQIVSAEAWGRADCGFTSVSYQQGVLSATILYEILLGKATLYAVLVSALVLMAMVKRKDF

Binder | EC50 (M), human T cell mediated MOLM-13 cell killing, Donor #1 [1] [M] | EC50 (M), human T cell mediated MOLM-13 cell killing, Donor #2 [1] [M] | Potency (M) - human T cells, KG-1a cell killing [2] [M] | Potency (M) - cyno T cells, KG-1a cell killing [3] [M] | Kd [4] [nM]
T017001017 (bispecific antibody) EVQLVESGGGVVQPGGSLRLSCVASGYVHKINFYGWYRQAPGKEREKVAHISIGDQTDYADSAKGRFTISRDESKNTVYLQMNSLRPEDTAAYYCRALSRIWPYDYWGQGTLVTVSSGGGGSGGGSEVQLVESGGGVVQPGGSLRLSCAASGTTLDYYVIGWFRQAPGKEREGVSCISSSDGYTYYADSVKGRFTISRDNAKNTVYLQMNSLRPEDTALYYCATDPYYSSCHPFFADYEYDYWGQGTLVTVSSGGGGSGGGSEVQLVESGGGVVQPGGSLRLSCAASGFTFRSFGMSWVRQAPGKGPEWVSSISGSGSDTLYADSVKGRFTISRDNSKNTLYLQMNSLRPEDTALYYCTIGGSLSRSSQGTLVTVSS | 4.5e-11 | 9.2e-11 | 2.1e-10 | 3.9e-11 | 13
T017001018 (bispecific antibody) EVQLVESGGGVVQPGGSLRLSCVASGYVHKINFYGWYRQAPGKEREKVAHISIGDQTDYAESAKGRFTISRDESKNTVYLQMNSLRPEDTAAYYCRALSRIYPYDYWGQGTLVTVSSGGGGSGGGSEVQLVESGGGVVQPGGSLRLSCAASGTTLDYYVIGWFRQAPGKEREGVSCISSSDGYTYYADSVKGRFTISRDNAKNTVYLQMNSLRPEDTALYYCATDPYYSSCHPFFADYEYDYWGQGTLVTVSSGGGGSGGGSEVQLVESGGGVVQPGGSLRLSCAASGFTFRSFGMSWVRQAPGKGPEWVSSISGSGSDTLYADSVKGRFTISRDNSKNTLYLQMNSLRPEDTALYYCTIGGSLSRSSQGTLVTVSS | 3.3e-11 | 1e-10 | 2.7e-10 | 4e-11 | 32
T017001019 (bispecific antibody) EVQLVESGGGVVQPGGSLRLSCVASGYVHKINFYGWYRQAPGKEREKVAHISIGDQTDYAESAKGRFTISRDESKNTVYLQMNSLRPEDTAAYYCRALSRITPYDYWGQGTLVTVSSGGGGSGGGSEVQLVESGGGVVQPGGSLRLSCAASGTTLDYYVIGWFRQAPGKEREGVSCISSSDGYTYYADSVKGRFTISRDNAKNTVYLQMNSLRPEDTALYYCATDPYYSSCHPFFADYEYDYWGQGTLVTVSSGGGGSGGGSEVQLVESGGGVVQPGGSLRLSCAASGFTFRSFGMSWVRQAPGKGPEWVSSISGSGSDTLYADSVKGRFTISRDNSKNTLYLQMNSLRPEDTALYYCTIGGSLSRSSQGTLVTVSS | 1.5e-10 | 5.2e-10 | 2.3e-09 | 7.4e-10 | 1600
T017001020 (bispecific antibody) EVQLVESGGGVVQPGGSLRLSCVASGYVHKINFYGWYRQAPGKEREKVAHISIGDQTDYAESAKGRFTISRDESKNTVYLQMNSLRPEDTAAYYCRALSRISPYDYWGQGTLVTVSSGGGGSGGGSEVQLVESGGGVVQPGGSLRLSCAASGTTLDYYVIGWFRQAPGKEREGVSCISSSDGYTYYADSVKGRFTISRDNAKNTVYLQMNSLRPEDTALYYCATDPYYSSCHPFFADYEYDYWGQGTLVTVSSGGGGSGGGSEVQLVESGGGVVQPGGSLRLSCAASGFTFRSFGMSWVRQAPGKGPEWVSSISGSGSDTLYADSVKGRFTISRDNSKNTLYLQMNSLRPEDTALYYCTIGGSLSRSSQGTLVTVSS | – | – | 7.6e-10 | – | 550
T017001021 (bispecific antibody) EVQLVESGGGVVQPGGSLRLSCVASGYVHKINFYGWYRQAPGKEREKVAHISIGDQTDYAESAKGRFTISRDESKNTVYLQMNSLRPEDTAAYYCRALSRIQPYDYWGQGTLVTVSSGGGGSGGGSEVQLVESGGGVVQPGGSLRLSCAASGTTLDYYVIGWFRQAPGKEREGVSCISSSDGYTYYADSVKGRFTISRDNAKNTVYLQMNSLRPEDTALYYCATDPYYSSCHPFFADYEYDYWGQGTLVTVSSGGGGSGGGSEVQLVESGGGVVQPGGSLRLSCAASGFTFRSFGMSWVRQAPGKGPEWVSSISGSGSDTLYADSVKGRFTISRDNSKNTLYLQMNSLRPEDTALYYCTIGGSLSRSSQGTLVTVSS | 2.3e-10 | 2.1e-09 | 5.7e-09 | 9.4e-10 | 3400
